Assay results from paper PMC5177890, “Controlled Orientation of Active Sites in a Nanostructured Multienzyme Complex” (Scientific Reports, 2016).

Target: the molecule itself
Assay: SEC; size exclusion chromatography of the enzyme in solution (Supplementary Fig. 1); conditions not told in the main text

B1: Formate dehydrogenase from Thiobacillus sp. KNK65MA, wild type (enzyme)
chain: MAKILCVLYDDPVDGYPKTYARDDLPKIDHYPGGQTLPTPKAIDFTPGQLLGSVSGELGLRKYLEANGHTFVVTSDKDGPDSVFEKELVDADVVISQPFWPAYLTPERIAKAKNLKLALTAGIGSDHVDLQSAIDRGITVAEVTYCNSISVAEHVVMMILGLVRNYIPSHDWARKGGWNIADCVEHSYDLEGMTVGSVAAGRIGLAVLRRLAPFDVKLHYTDRHRLPEAVEKELGLVWHDTREDMYPHCDVVTLNVPLHPETEHMINDETLKLFKRGAYIVNTARGKLADRDAIVRAIESGQLAGYAGDVWFPQPAPKDHPWRTMKWEGMTPHISGTSLSAQARYAAGTREILECFFEGRPIRDEYLIVQGGALAGTGAHSYSKGNATGGSEEAAKFKKAG
notes: NAD-dependent formate dehydrogenase of Thiobacillus sp; KNK65MA; fdh gene PCR amplified from pET-23b(+)-TsFDH and subcloned into pQE80; 45 kDa for a single subunit; also called FDH; FDH-WT; source: E. coli TOP10, purified (Ni-NTA agarose)
- stoichiometry N: 2
